Measured values published in patent US20220403031A1.

How the values were obtained:
[1] = biological target: cynomolgus monkey PD-L1 on 293F cells (W315-293F.cynoPro1.2A2) (cynomolgus monkey) (UniProt G7PSE7); assay: FACS on cynomolgus PD-L1 293F cells
[2] = biological target: cynomolgus monkey PD-L1 on 293F cells (W315-293F.cynoPro1.2A2) (cynomolgus monkey) (UniProt G7PSE7); assay: FACS affinity on cynomolgus PD-L1 cells, quantitative beads; design: Bmax: unit not given here
[3] = biological target: mouse PD-L1 on 293F cells (W315-293F.mPro1.C1) (mouse) (UniProt Q9EP73); assay: FACS on mouse PD-L1 293F cells
Chain of mouse PD-L1 on 293F cells (W315-293F.mPro1.C1) (mouse) (Q9EP73 19-290): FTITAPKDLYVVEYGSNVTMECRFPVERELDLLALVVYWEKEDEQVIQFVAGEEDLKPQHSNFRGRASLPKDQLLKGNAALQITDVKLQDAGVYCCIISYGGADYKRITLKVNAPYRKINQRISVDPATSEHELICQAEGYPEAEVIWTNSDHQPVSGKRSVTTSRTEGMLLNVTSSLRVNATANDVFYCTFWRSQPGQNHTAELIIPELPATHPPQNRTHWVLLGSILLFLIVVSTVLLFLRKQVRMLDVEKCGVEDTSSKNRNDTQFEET

[4] = biological target: human PD-L1 on CHO-K1 cells (W315-CHO-K1.hPro1.C11) (human) (UniProt Q9NZQ7); assay: FACS affinity on human PD-L1 cells, quantitative beads
Chain of human PD-L1 on CHO-K1 cells (W315-CHO-K1.hPro1.C11) (human) (Q9NZQ7 19-290): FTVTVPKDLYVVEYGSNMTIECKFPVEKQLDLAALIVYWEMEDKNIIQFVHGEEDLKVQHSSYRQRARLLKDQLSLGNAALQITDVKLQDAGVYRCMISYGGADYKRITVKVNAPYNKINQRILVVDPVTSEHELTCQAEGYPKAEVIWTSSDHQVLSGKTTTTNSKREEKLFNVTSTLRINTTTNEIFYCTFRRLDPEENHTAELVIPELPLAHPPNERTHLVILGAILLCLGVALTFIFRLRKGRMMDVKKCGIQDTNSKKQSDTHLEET

[5] = biological target: mouse PD-L1 on 293F cells (W315-293F.mPro1.C1) (mouse) (UniProt Q9EP73); assay: FACS affinity on mouse PD-L1 cells, quantitative beads
[6] = biological target: mouse PD-L1 on 293F cells (W315-293F.mPro1.C1) (mouse) (UniProt Q9EP73); assay: FACS competition: antibody titrated against 5 ug/mL mouse PD-1 ECD mFc on mouse PD-L1 293F cells
[7] = biological target: human PD-L1 on CHO-K1 cells (W315-CHO-K1.hPro1.C11) (human) (UniProt Q9NZQ7); assay: FACS on human PD-L1 CHO-K1 cells
[8] = biological target: human PD-L1 on CHO-K1 cells (W315-CHO-K1.hPro1.C11) (human) (UniProt Q9NZQ7); assay: FACS competition: antibody titrated against 5 ug/mL human PD-1 ECD mFc on human PD-L1 CHO-K1 cells
[9] = biological target: 4-1BB.his (Homo sapiens (Human)) (UniProt Q07011); assay: non-specific binding ELISA; secondary antibody alone on coated antigen
Chain of 4-1BB.his (Homo sapiens (Human)) (Q07011 24-186 limits assumed): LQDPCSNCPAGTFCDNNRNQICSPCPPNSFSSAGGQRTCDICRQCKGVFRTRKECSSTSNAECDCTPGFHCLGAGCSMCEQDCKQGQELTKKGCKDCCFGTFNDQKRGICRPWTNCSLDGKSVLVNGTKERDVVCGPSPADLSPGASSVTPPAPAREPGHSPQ

CD147.his [10] = assay: as above
CD22.his [11] = assay: as above
CD3.his [12] = assay: as above
CD40 [13] = assay: as above
Chain of CD40 (P25942 21-193): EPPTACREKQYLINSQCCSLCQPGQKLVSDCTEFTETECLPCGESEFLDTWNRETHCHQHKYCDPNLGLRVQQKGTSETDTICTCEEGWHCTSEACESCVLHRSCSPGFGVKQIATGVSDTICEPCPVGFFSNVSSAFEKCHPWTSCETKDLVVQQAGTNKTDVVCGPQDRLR

CTLA4.his [14] = assay: as above
Chain of CTLA4.his (P16410 36-161): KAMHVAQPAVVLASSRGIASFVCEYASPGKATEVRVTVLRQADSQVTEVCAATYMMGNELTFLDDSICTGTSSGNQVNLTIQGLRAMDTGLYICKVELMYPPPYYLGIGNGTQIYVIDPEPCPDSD

FGFR.his [15] = assay: as above
Factor VIII [16] = assay: as above
[17] = biological target: HER3.his (Homo sapiens (Human)) (UniProt P21860); assay: as above
OX40.his [18] = assay: as above
Chain of OX40.his (P43489 29-214): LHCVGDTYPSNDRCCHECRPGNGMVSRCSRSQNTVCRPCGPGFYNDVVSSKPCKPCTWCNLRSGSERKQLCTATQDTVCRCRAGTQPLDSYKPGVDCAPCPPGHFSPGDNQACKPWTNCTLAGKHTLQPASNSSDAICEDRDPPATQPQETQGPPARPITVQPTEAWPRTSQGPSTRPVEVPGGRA

[19] = biological target: PD-1.his (Homo sapiens (Human)) (UniProt Q15116); assay: as above
Chain of PD-1.his (Homo sapiens (Human)) (Q15116 25-170 limits assumed): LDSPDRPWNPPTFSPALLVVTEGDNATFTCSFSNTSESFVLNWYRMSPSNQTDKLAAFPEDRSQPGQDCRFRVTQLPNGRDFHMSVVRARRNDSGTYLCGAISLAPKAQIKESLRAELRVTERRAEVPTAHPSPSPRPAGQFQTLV

VEGF.his [20] = assay: as above
[21] = biological target: human serum Albumin (human) (UniProt P02768); assay: as above
[22] = biological target: 4-1BB.his (Homo sapiens (Human)) (UniProt Q07011); assay: non-specific binding ELISA; antigen coated at 2 ug/mL, antibody at 10 ug/ml
CD147.his [23] = assay: as above
CD22.his [24] = assay: as above
CD3.his [25] = assay: as above
CD40 [26] = assay: as above
CTLA4.his [27] = assay: as above
FGFR.his [28] = assay: as above
Factor VIII [29] = assay: as above
[30] = biological target: HER3.his (Homo sapiens (Human)) (UniProt P21860); assay: as above
OX40.his [31] = assay: as above
[32] = biological target: PD-1.his (Homo sapiens (Human)) (UniProt Q15116); assay: as above
VEGF.his [33] = assay: as above
[34] = biological target: human serum Albumin (human) (UniProt P02768); assay: as above

Chain of cynomolgus monkey PD-L1 on 293F cells (W315-293F.cynoPro1.2A2) (cynomolgus monkey) (G7PSE7 entry or part of it): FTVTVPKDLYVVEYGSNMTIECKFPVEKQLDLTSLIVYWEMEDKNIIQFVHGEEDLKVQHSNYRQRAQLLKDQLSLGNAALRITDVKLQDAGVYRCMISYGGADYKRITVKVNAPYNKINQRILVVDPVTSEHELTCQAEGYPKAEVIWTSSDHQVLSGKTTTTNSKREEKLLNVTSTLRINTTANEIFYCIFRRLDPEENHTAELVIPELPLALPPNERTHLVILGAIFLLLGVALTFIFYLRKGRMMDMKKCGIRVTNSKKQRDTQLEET

Substance | EC50 [1] | Bmax [2] | Kd [2] | Absorbance at 450 nm [22] | Absorbance at 450 nm (CD147.his [23]) | Absorbance at 450 nm (CD22.his [24]) | Absorbance at 450 nm (CD3.his [25]) | Absorbance at 450 nm (CD40 [26]) | Absorbance at 450 nm (CTLA4.his [27]) | Absorbance at 450 nm (FGFR.his [28]) | Absorbance at 450 nm (Factor VIII [29]) | Absorbance at 450 nm [30] | Absorbance at 450 nm (OX40.his [31]) | Absorbance at 450 nm [32] | Absorbance at 450 nm (VEGF.his [33]) | Absorbance at 450 nm [34] | further results
BMK8.hIgG4 (Benchmark antibody 8, variable region of Tecentriq conjugated with human IgG4 constant region) | 2.19 nM | 8.8e-09 | 16 nM |  |  |  |  |  |  |  |  |  |  |  |  |  | EC50 [3]: 1.48 nM; Bmax [4]: 3.3e-10; Kd [4]: 0.53 nM; Bmax [5]: 8.3e-10; Kd [5]: 1.7 nM; IC50 [6]: 1.45 nM
Goat anti-human IgG Fc-HRP (Bethyl, A80-304P) (antibody) |  |  |  |  |  |  |  |  |  |  |  |  |  |  |  |  | Absorbance at 450 nm [9]: 0.05; Absorbance at 450 nm (CD147.his [10]): 0.05; Absorbance at 450 nm (CD22.his [11]): 0.05; Absorbance at 450 nm (CD3.his [12]): 0.05; Absorbance at 450 nm (CD40 [13]): 0.24; Absorbance at 450 nm (CTLA4.his [14]): 0.05; Absorbance at 450 nm (FGFR.his [15]): 0.13; Absorbance at 450 nm (Factor VIII [16]): 0.06; Absorbance at 450 nm [17]: 0.05; Absorbance at 450 nm (OX40.his [18]): 0.05; Absorbance at 450 nm [19]: 0.05; Absorbance at 450 nm (VEGF.his [20]): 0.06; Absorbance at 450 nm [21]: 0.37
hIgG4L Isotype control (antibody) |  |  |  | 0.06 | 0.06 | 0.06 | 0.07 | 0.24 | 0.06 | 0.13 | 0.07 | 0.06 | 0.06 | 0.05 | 0.08 | 0.41 | 

Further lines, with some results ahead:

EC50 [1] | Bmax [2] | Kd [2] | Absorbance at 450 nm [22] | Absorbance at 450 nm (CD147.his [23]) | Absorbance at 450 nm (CD22.his [24]) | Absorbance at 450 nm (CD3.his [25]) | Absorbance at 450 nm (CD40 [26]) | Absorbance at 450 nm (CTLA4.his [27]) | Absorbance at 450 nm (FGFR.his [28]) | Absorbance at 450 nm (Factor VIII [29]) | Absorbance at 450 nm [30] | Absorbance at 450 nm (OX40.his [31]) | Absorbance at 450 nm [32] | Absorbance at 450 nm (VEGF.his [33]) | Absorbance at 450 nm [34] | Substance | further results
2.65 nM | 1.6e-08 | 21 nM |  |  |  |  |  |  |  |  |  |  |  |  |  | BMK6.hIgG4 (Benchmark antibody 6, variable region of Imfinzi conjugated with human IgG4 constant region) | 
2.33 nM |  |  |  |  |  |  |  |  |  |  |  |  |  |  |  | BMK9.Fc(IgG1) (Benchmark antibody 9, same sequence with KN035) (Fc fusion) | EC50 [7]: 0.456 nM; IC50 [8]: 0.798 nM
 |  |  | 0.07 | 0.06 | 0.06 | 0.07 | 0.25 | 0.09 | 0.13 | 0.15 | 0.07 | 0.06 | 3.29 | 0.11 | 0.41 | hIgG4K Isotype control (antibody) | 
